Test results published in US20170336415A1.
One block for each substance: values may come before it.

Tests used:
fucosylated haptoglobin [1] = molecular target: fucosylated haptoglobin (UniProt P00738); test: sandwich ELISA as in Example 4, captured fHP, biotin-labeled NSL, 5 M urea
fucosylated haptoglobin [2] = molecular target: fucosylated haptoglobin (UniProt P00738); test: sandwich ELISA, 5 M urea against no urea
fucosylated haptoglobin [3] = molecular target: fucosylated haptoglobin (UniProt P00738); test: sandwich ELISA, 5 M urea minus no urea
fucosylated haptoglobin [4] = molecular target: fucosylated haptoglobin (UniProt P00738); test: sandwich ELISA as in Example 4, captured fHP, biotin-labeled NSL, no urea
fucosylated haptoglobin [5] = molecular target: fucosylated haptoglobin (UniProt P00738); test: sandwich ELISA, fHP 200 ng/mL captured by anti-haptoglobin antibody, biotin-labeled lectin 1 µg/mL, 5 M urea
fucosylated haptoglobin [6] = molecular target: fucosylated haptoglobin (UniProt P00738); test: sandwich ELISA, fHP 200 ng/mL captured by anti-haptoglobin antibody, biotin-labeled lectin 1 µg/mL, no urea
fucosylated haptoglobin [7] = molecular target: fucosylated haptoglobin (UniProt P00738); test: magnetic bead assay, 5 M urea against no urea
fucosylated haptoglobin [8] = molecular target: fucosylated haptoglobin (UniProt P00738); test: magnetic bead assay, signal with fHP divided by signal without fHP, no urea
fucosylated haptoglobin [9] = molecular target: fucosylated haptoglobin (UniProt P00738); test: magnetic bead assay: fHP 0.45 µg/mL mixed with recombinant lectin 5 µg/mL, captured on anti-haptoglobin antibody beads, HRP anti-FLAG detection, 5 M urea
fucosylated haptoglobin [10] = molecular target: fucosylated haptoglobin (UniProt P00738); test: magnetic bead assay, 5 M urea minus no urea
fucosylated haptoglobin [11] = molecular target: fucosylated haptoglobin (UniProt P00738); test: magnetic bead assay: fHP 0.45 µg/mL mixed with recombinant lectin 5 µg/mL, captured on anti-haptoglobin antibody beads, HRP anti-FLAG detection, no urea
fucosylated haptoglobin [12] = molecular target: fucosylated haptoglobin (UniProt P00738); test: magnetic bead assay, signal with fHP divided by signal without fHP, 5 M urea
fucosylated haptoglobin [13] = molecular target: fucosylated haptoglobin (UniProt P00738); test: sandwich ELISA as in Example 4, captured fHP, biotin-labeled PTL, no urea
fucosylated haptoglobin [14] = molecular target: fucosylated haptoglobin (UniProt P00738); test: sandwich ELISA as in Example 4, captured fHP, biotin-labeled PTL, 5 M urea
fucosylated haptoglobin [15] = molecular target: fucosylated haptoglobin (UniProt P00738); test: sandwich ELISA as in Example 4 (biotin-labeled PhoSL), captured fHP washed with detergent liquid with 5 M urea, no urea in lectin solution
fucosylated haptoglobin [16] = molecular target: fucosylated haptoglobin (UniProt P00738); test: direct adsorption ELISA, 5 M urea minus no urea
α-fetoprotein L3 [17] = molecular target: α-fetoprotein L3 (UniProt P02771); test: direct adsorption ELISA, 5 M urea minus no urea
fucosylated haptoglobin [18] = molecular target: fucosylated haptoglobin (UniProt P00738); test: sandwich ELISA, wash with 1.2 M thiourea against wash without
fucosylated haptoglobin [19] = molecular target: fucosylated haptoglobin (UniProt P00738); test: sandwich ELISA, wash with 5 M urea minus wash without
fucosylated haptoglobin [20] = molecular target: fucosylated haptoglobin (UniProt P00738); test: sandwich ELISA as in Example 4, fHP 50 ng/mL, urea 0 to 9 M
α-fetoprotein L3 [21] = molecular target: α-fetoprotein L3 (UniProt P02771); test: direct adsorption ELISA, AFP-L3 immobilized, biotin-labeled PhoSL, 1.2 M thiourea
fucosylated haptoglobin [22] = molecular target: fucosylated haptoglobin (UniProt P00738); test: direct adsorption ELISA, 1.2 M thiourea against no thiourea
α-fetoprotein L3 [23] = molecular target: α-fetoprotein L3 (UniProt P02771); test: as above
fucosylated haptoglobin [24] = molecular target: fucosylated haptoglobin (UniProt P00738); test: direct adsorption ELISA, fHP immobilized, biotin-labeled PhoSL, 1.2 M thiourea
α-fetoprotein L3 [25] = molecular target: α-fetoprotein L3 (UniProt P02771); test: direct adsorption ELISA, AFP-L3 immobilized, biotin-labeled PhoSL 1 µg/mL, no urea
fucosylated haptoglobin [26] = molecular target: fucosylated haptoglobin (UniProt P00738); test: sandwich ELISA as in Example 4, thiourea 0 to 1.5 M
fucosylated haptoglobin [27] = molecular target: fucosylated haptoglobin (UniProt P00738); test: sandwich ELISA, wash with 1.2 M thiourea minus wash without
α-fetoprotein L3 [28] = molecular target: α-fetoprotein L3 (UniProt P02771); test: direct adsorption ELISA, AFP-L3 immobilized, biotin-labeled PhoSL 1 µg/mL, 5 M urea
fucosylated haptoglobin [29] = molecular target: fucosylated haptoglobin (UniProt P00738); test: sandwich ELISA as in Example 4 (biotin-labeled PhoSL), captured fHP washed with detergent liquid without urea or thiourea
fucosylated haptoglobin [30] = molecular target: fucosylated haptoglobin (UniProt P00738); test: sandwich ELISA, wash with 5 M urea against wash without
fucosylated haptoglobin [31] = molecular target: fucosylated haptoglobin (UniProt P00738); test: direct adsorption ELISA, 1.2 M thiourea minus no thiourea
α-fetoprotein L3 [32] = molecular target: α-fetoprotein L3 (UniProt P02771); test: as above
fucosylated haptoglobin [33] = molecular target: fucosylated haptoglobin (UniProt P00738); test: direct adsorption ELISA, fHP immobilized, biotin-labeled PhoSL, no thiourea
α-fetoprotein L3 [34] = molecular target: α-fetoprotein L3 (UniProt P02771); test: direct adsorption ELISA, AFP-L3 immobilized, biotin-labeled PhoSL, no thiourea
fucosylated haptoglobin [35] = molecular target: fucosylated haptoglobin (UniProt P00738); test: sandwich ELISA as in Example 4 (biotin-labeled PhoSL), captured fHP washed with detergent liquid with 1.2 M thiourea, none in lectin solution
fucosylated haptoglobin [36] = molecular target: fucosylated haptoglobin (UniProt P00738); test: direct adsorption ELISA, 5 M urea against no urea
α-fetoprotein L3 [37] = molecular target: α-fetoprotein L3 (UniProt P02771); test: direct adsorption ELISA, 5 M urea against no urea
fucosylated haptoglobin [38] = molecular target: fucosylated haptoglobin (UniProt P00738); test: direct adsorption ELISA, fHP immobilized, biotin-labeled PhoSL 1 µg/mL, no urea
fucosylated haptoglobin [39] = molecular target: fucosylated haptoglobin (UniProt P00738); test: direct adsorption ELISA, fHP immobilized, biotin-labeled PhoSL 1 µg/mL, 5 M urea
fucosylated haptoglobin [40] = molecular target: fucosylated haptoglobin (UniProt P00738); test: sandwich ELISA as in Example 4, captured fHP, biotin-labeled AML, no urea
fucosylated haptoglobin [41] = molecular target: fucosylated haptoglobin (UniProt P00738); test: sandwich ELISA as in Example 4, captured fHP, biotin-labeled AML, 5 M urea

α-fetoprotein L3, sequence (P02771 19-609 limits assumed): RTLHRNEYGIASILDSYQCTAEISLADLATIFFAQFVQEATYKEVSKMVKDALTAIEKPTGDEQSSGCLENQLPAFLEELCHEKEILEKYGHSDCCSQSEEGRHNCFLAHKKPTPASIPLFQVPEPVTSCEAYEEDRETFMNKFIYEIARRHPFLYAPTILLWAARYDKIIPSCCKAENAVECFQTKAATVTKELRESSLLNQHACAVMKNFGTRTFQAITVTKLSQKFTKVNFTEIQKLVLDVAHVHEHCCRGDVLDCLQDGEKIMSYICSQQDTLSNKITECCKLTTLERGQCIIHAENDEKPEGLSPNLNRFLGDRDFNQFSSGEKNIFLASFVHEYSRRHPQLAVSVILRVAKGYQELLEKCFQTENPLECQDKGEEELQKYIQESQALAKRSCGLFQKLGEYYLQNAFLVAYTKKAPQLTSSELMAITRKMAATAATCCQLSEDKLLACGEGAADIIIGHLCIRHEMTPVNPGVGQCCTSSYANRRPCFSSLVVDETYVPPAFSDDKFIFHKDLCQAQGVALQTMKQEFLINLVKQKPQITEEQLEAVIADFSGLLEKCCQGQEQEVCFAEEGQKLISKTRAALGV
fucosylated haptoglobin, sequence (P00738 19-406 limits assumed): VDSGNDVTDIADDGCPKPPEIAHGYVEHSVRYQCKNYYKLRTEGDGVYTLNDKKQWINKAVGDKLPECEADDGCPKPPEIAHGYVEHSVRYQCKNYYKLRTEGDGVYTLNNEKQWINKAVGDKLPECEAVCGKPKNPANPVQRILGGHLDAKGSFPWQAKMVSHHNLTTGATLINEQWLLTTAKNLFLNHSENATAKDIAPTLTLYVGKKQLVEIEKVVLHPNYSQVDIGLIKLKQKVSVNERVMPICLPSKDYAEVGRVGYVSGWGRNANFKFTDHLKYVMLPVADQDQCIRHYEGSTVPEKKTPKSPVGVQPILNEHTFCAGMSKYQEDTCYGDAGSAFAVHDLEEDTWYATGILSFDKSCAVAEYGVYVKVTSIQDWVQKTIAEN

Reaction value (S - N)urea 5M (absorbance (450 nm - 630 nm)) (fucosylated haptoglobin [1]): 1.34 | Increased rate of signal (fucosylated haptoglobin [2]): 3.18 fold | Increased amount of signal (absorbance (450 nm - 630 nm)) (fucosylated haptoglobin [3]): 0.922 | Reaction value (S - N)urea 0M (absorbance (450 nm - 630 nm)) (fucosylated haptoglobin [4]): 0.423
Substance: Naematoloma sublateritium lectin (NSL), biotin-labeled

Increased rate of signal (fucosylated haptoglobin [2]): 1.32 fold | Reaction value (S - N)urea 5M (absorbance (450 nm - 630 nm)) (fucosylated haptoglobin [5]): 0.214 | Increased amount of signal (absorbance (450 nm - 630 nm)) (fucosylated haptoglobin [3]): 0.052 | Reaction value (S - N)urea 0M (absorbance (450 nm - 630 nm)) (fucosylated haptoglobin [6]): 0.162
Substance: PhoSL peptide, biotin-labeled

Increased rate of signal (fucosylated haptoglobin [7]): 1.56 fold | Reaction value (S/N)urea 0M (fucosylated haptoglobin [8]): 6.83 | Reaction value (S - N)urea 5M (absorbance (450 nm - 630 nm)) (fucosylated haptoglobin [9]): 0.708 | Increased amount of signal (absorbance (450 nm - 630 nm)) (fucosylated haptoglobin [10]): 0.253 | Reaction value (S - N)urea 0M (absorbance (450 nm - 630 nm)) (fucosylated haptoglobin [11]): 0.455 | Reaction value (S/N)urea 5M (fucosylated haptoglobin [12]): 26.3
Substance: PhoSL recombinant lectin

Increased rate of signal (fucosylated haptoglobin [2]): 2.01 fold | Reaction value (S - N)urea 5M (absorbance (450 nm - 630 nm)) (fucosylated haptoglobin [5]): 0.863 | Increased amount of signal (absorbance (450 nm - 630 nm)) (fucosylated haptoglobin [3]): 0.433 | Reaction value (S - N)urea 0M (absorbance (450 nm - 630 nm)) (fucosylated haptoglobin [6]): 0.43
Substance: Stropharia rugosoannulata lectin (SRL), biotin-labeled

Increased rate of signal (fucosylated haptoglobin [2]): 0.88 fold | Reaction value (S - N)urea 5M (absorbance (450 nm - 630 nm)) (fucosylated haptoglobin [5]): 0.774 | Increased amount of signal (absorbance (450 nm - 630 nm)) (fucosylated haptoglobin [3]): -0.103 | Reaction value (S - N)urea 0M (absorbance (450 nm - 630 nm)) (fucosylated haptoglobin [6]): 0.877
Substance: Biotin-labeled Aleuria aurantia lectin (from UniProt P18891 2-313)

Increased rate of signal (fucosylated haptoglobin [2]): 2.37 fold | Increased amount of signal (absorbance (450 nm - 630 nm)) (fucosylated haptoglobin [3]): 0.743 | Reaction value (S - N)urea 0M (absorbance (450 nm - 630 nm)) (fucosylated haptoglobin [13]): 0.542 | Reaction value (S - N)urea 5M (absorbance (450 nm - 630 nm)) (fucosylated haptoglobin [14]): 1.28
Substance: Pholiota terrestris lectin (PTL), biotin-labeled

Reaction value (S - N)urea 5M (absorbance (450 nm - 630 nm)) (fucosylated haptoglobin [15]): 1 | Increased amount of signal (absorbance (450 nm - 630 nm)) (fucosylated haptoglobin [16]): 0.471 | Increased amount of signal (absorbance (450 nm - 630 nm)) (α-fetoprotein L3 [17]): 0.124 | Increased rate of signal (fucosylated haptoglobin [18]): 1.67 fold | Increased amount of signal (absorbance (450 nm - 630 nm)) (fucosylated haptoglobin [19]): 0.457 | increased rate of the signals against no urea (fucosylated haptoglobin [20]): 1.2 to 2.8 times | Reaction value (S - N)thiourea 1.2M (absorbance (450 nm - 630 nm)) (α-fetoprotein L3 [21]): 0.117 | Increased rate of signal (fucosylated haptoglobin [22]): 2.89 fold | Increased rate of signal (α-fetoprotein L3 [23]): 39 fold | Increased rate of signal (fucosylated haptoglobin [2]): 3 fold | Reaction value (S - N)thiourea 1.2M (absorbance (450 nm - 630 nm)) (fucosylated haptoglobin [24]): 1.04 | Reaction value (S - N)urea 0M (absorbance (450 nm - 630 nm)) (α-fetoprotein L3 [25]): 0.008 | Reaction value (S - N)urea 5M (absorbance (450 nm - 630 nm)) (fucosylated haptoglobin [5]): 0.796 | Increased amount of signal (absorbance (450 nm - 630 nm)) (fucosylated haptoglobin [3]): 0.531 | increased rate of the signals against no thiourea (fucosylated haptoglobin [26]): 1.2 to 4.1 times | Increased amount of signal (absorbance (450 nm - 630 nm)) (fucosylated haptoglobin [27]): 0.364 | Reaction value (S - N)urea 0M (absorbance (450 nm - 630 nm)) (fucosylated haptoglobin [6]): 0.265 | Reaction value (S - N)urea 5M (absorbance (450 nm - 630 nm)) (α-fetoprotein L3 [28]): 0.132 | Reaction value (S - N)0M (absorbance (450 nm - 630 nm)) (fucosylated haptoglobin [29]): 0.545 | Increased rate of signal (fucosylated haptoglobin [30]): 1.84 fold | Increased amount of signal (absorbance (450 nm - 630 nm)) (fucosylated haptoglobin [31]): 0.681 | Increased amount of signal (absorbance (450 nm - 630 nm)) (α-fetoprotein L3 [32]): 0.114 | Reaction value (S - N)thiourea 0M (absorbance (450 nm - 630 nm)) (fucosylated haptoglobin [33]): 0.36 | Reaction value (S - N)thiourea 0M (absorbance (450 nm - 630 nm)) (α-fetoprotein L3 [34]): 0.003 | Reaction value (S - N)thiourea 1.2M (absorbance (450 nm - 630 nm)) (fucosylated haptoglobin [35]): 0.909 | Increased rate of signal (fucosylated haptoglobin [36]): 2.86 fold | Increased rate of signal (α-fetoprotein L3 [37]): 16.5 fold | Reaction value (S - N)urea 0M (absorbance (450 nm - 630 nm)) (fucosylated haptoglobin [38]): 0.253 | Reaction value (S - N)urea 5M (absorbance (450 nm - 630 nm)) (fucosylated haptoglobin [39]): 0.724
Substance: Pholiota squarrosa lectin (PhoSL), biotin-labeled

Reaction value (S - N)urea 0M (absorbance (450 nm - 630 nm)) (fucosylated haptoglobin [40]): 0.027 | Increased rate of signal (fucosylated haptoglobin [2]): 20.3 fold | Increased amount of signal (absorbance (450 nm - 630 nm)) (fucosylated haptoglobin [3]): 0.521 | Reaction value (S - N)urea 5M (absorbance (450 nm - 630 nm)) (fucosylated haptoglobin [41]): 0.548
Substance: Amanita muscaria lectin (AML), biotin-labeled
